Measurements reported in PMC6880876.

Target: end-binding protein 3 (EB3), full-length, recombinant (UniProt Q9UPY8)
Assay: ELISA

Sequence of UniProt Q9UPY8 (Q9UPY8 whole entry): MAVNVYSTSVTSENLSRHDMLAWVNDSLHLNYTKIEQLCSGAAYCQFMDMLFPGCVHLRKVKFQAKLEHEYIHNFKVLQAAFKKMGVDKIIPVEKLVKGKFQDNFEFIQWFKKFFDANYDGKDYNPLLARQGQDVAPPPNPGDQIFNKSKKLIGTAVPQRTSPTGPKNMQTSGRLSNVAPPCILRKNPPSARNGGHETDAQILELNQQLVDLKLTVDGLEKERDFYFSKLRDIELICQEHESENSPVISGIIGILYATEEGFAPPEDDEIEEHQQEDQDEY

Kd: 22 nM
Substance: full-length WT tau (0N4R) (from UniProt P10636-6 1-383) (natural protein)
